Experimental data from US20200262869A1, “PEPTIDE ANTIBIOTIC COMPLEXES AND METHODS OF USE THEREOF” (GENENTECH, INC., priority 2017, published 2020).
In brackets after ≈: the same amount, converted by molar mass.

How the values were obtained:
E. aerogenes ATCC 13408 = test: MIC, broth microdilution; format: cell-based
Experimental: (§1) Minimum Inhibitory Concentration (MIC). MICs were determined by performing two-fold serial dilutions of compound in Mueller Hinton II cation-adjusted broth to a final volume of 0.1 m1 in round-bottom 96-well assay plates (Corning Life Sciences No 3788). Each well was inoculated with 5×10^5 CFU/ml and incubated at 37° C. without agitation for 18 hours. Plates were scored by eye, and the lowest compound concentration preventing visible growth was determined to be the MIC.

A. baumannii ATCC 17978 = test: MIC, broth microdilution; format: cell-based
Experimental: as §1

P. aeruginosa ATCC 27853 = test: MIC, broth microdilution; format: cell-based
Experimental: as §1

E. coli ATCC 25922 = test: MIC, broth microdilution; format: cell-based; conditions: E. coli ATCC 25922
Experimental: as §1

K. pneumoniae ATCC 43816 = test: MIC, broth microdilution; format: cell-based; conditions: K. pneumoniae ATCC 43816
Experimental: as §1

C. werkmanii ATCC 51114 = test: MIC, broth microdilution; format: cell-based
Experimental: as §1

S. marcescens CDC4385-74 = test: MIC, broth microdilution; format: cell-based
Experimental: as §1

E. cloacae ATCC 13407 = test: MIC, broth microdilution; format: cell-based
Experimental: as §1

[1] = system: MDR K. pneumoniae CDC 0106; test: MIC against MDR clinical isolate; format: cell-based
Experimental: as §1

[2] = biological target: full length recombinant LepB from E. coli (E. coli) (UniProt P00803); test: kinetic enzyme assay, full-length LepB in detergent micelle, fluorogenic substrate Dabcyl-DAP-PAKAAE-Edans (SEQ ID NO: 6), 2-step irreversible binding model (Dynafit)
[3] = biological target: LepB P88R (E. coli ATCC 25922) (E. coli) (UniProt P00803); test: cell-based or functional assay
[4] = biological target: LepB E83K (E. coli ATCC 25922) (E. coli) (UniProt P00803); test: cell-based or functional assay
[5] = biological target: LepB L142R (E. coli ATCC 25922) (E. coli) (UniProt P00803); test: cell-based or functional assay
[6] = biological target: LepB P88T (E. coli ATCC 25922) (E. coli) (UniProt P00803); test: cell-based or functional assay
[7] = biological target: LepB P88Q (E. coli ATCC 25922) (E. coli) (UniProt P00803); test: cell-based or functional assay
[8] = biological target: LepB F85S (E. coli ATCC 25922) (E. coli) (UniProt P00803); test: cell-based or functional assay
[9] = biological target: LepB in E. coli K-12 MG1655 (E. coli) (UniProt P00803); test: cell-based or functional assay
[10] = biological target: LepB A297V (E. coli ATCC 25922) (E. coli) (UniProt P00803); test: cell-based or functional assay
[11] = biological target: LepB V149(VVGLP) (E. coli ATCC 25922) (E. coli) (UniProt P00803); test: cell-based or functional assay
[12] = biological target: LepB V133F (E. coli ATCC 25922) (E. coli) (UniProt P00803); test: cell-based or functional assay
[13] = biological target: LepB D143Y (E. coli ATCC 25922) (E. coli) (UniProt P00803); test: cell-based or functional assay
[14] = biological target: LepB P88L (E. coli ATCC 25922) (E. coli) (UniProt P00803); test: cell-based or functional assay

`CCCCCCCCCCCCCCCC(=O)N(C)[C@H](CO)C(=O)N[C@H](C)C(=O)NCC(=O)N(C)[C@@H]1C(=O)N[C@@H](C)C(=O)N[C@H](C(=O)O)Cc2ccc(O)c(c2)-c2cc1ccc2O` [Arylomycin A-C16, reference compound] was tested, and the MIC (E. aerogenes ATCC 13408) was >64 µg/mL, the MIC (A. baumannii ATCC 17978) was >64 µg/mL and the MIC (P. aeruginosa ATCC 27853) was >64 µg/mL. For the same compound, the MIC (E. coli ATCC 25922) was >64 µg/mL, the MIC (K. pneumoniae ATCC 43816) was >64 µg/mL and the MIC (C. werkmanii ATCC 51114) was >64 µg/mL. The MIC (S. marcescens CDC4385-74) was >64 µg/mL and the MIC (E. cloacae ATCC 13407) was >64 µg/mL.

In the case of `C[C@H]1COc2c(N3CCN(C)CC3)c(F)cc3c(=O)c(C(=O)O)cn1c23` [Levofloxacin], the MIC ([1]; Klebsiella pneumoniae) is reported as > 64 µg/mL.

`C[C@@H](O)[C@H]1C(=O)N2C(C(=O)O)=C(S[C@@H]3CN[C@H](C(=O)N(C)C)C3)[C@H](C)[C@H]12` [Meropenem] was tested, and the MIC ([1]; Klebsiella pneumoniae) was > 64 µg/mL.

Work on `CN(C)c1cc(NC(=O)CNC(C)(C)C)c(O)c2c1C[C@H]1C[C@H]3[C@H](N(C)C)C(O)=C(C(N)=O)C(=O)[C@@]3(O)C(O)=C1C2=O` [Tigecycline] yielded an MIC ([1]; Klebsiella pneumoniae) of 2 µg/mL (≈ 3.41 µM).

Work on Colistin yielded an MIC ([1]; MDR K. pneumoniae CDC 0106) of 16 µg/mL.

G0775 (peptide) gave a kinact [2] of 0.0007 s⁻¹, a Fold MIC Increase [3] of 16 fold and a Fold MIC Increase [4] of 16 fold. For the same compound, the Fold MIC Increase [5] was 8 fold, the Fold MIC Increase [6] was 4 fold and the Fold MIC Increase [7] was 4 fold. For the same compound, the Fold MIC Increase [8] was 8 fold, the G0775 MIC (µg/ml), MG 1655 - LepB High (Increase LepB expression level) [9] was 1 µg/mL and the G0775 MIC (µg/ml), MG 1655 - LepB Low (Reduced LepB expression level) [9] was 0.008 µg/mL. It also gave a G0775 MIC (µg/ml), MG1655 WT [9] of 0.125 µg/mL, a Fold MIC Increase [10] of 4 fold and a Fold MIC Increase [11] of 128 fold. For the same compound, the Fold MIC Increase [12] was 16 fold, the Fold MIC Increase [13] was 8 fold and the Fold MIC Increase [14] was 16 fold.

In the case of Gentamicin, the MIC ([1]; MDR K. pneumoniae CDC 0106) is reported as >64 µg/mL.
